{"source": "patent US20250268980A1", "about": "“AN ANTICANCER THERAPY TARGETING RAS AND OTHER ONCOGENIC SIGNALS BY INHIBITION OF DYNAMIC BLEBBING AND/OR SEPTINS” (THE BOARD OF REGENTS OF THE UNIVERSITY OF TEXAS SYSTEM, priority 2022, published 2025)", "key": {"[1]": {"biological_target": "All Septins", "test": "HaloLink pulldown from MV3 cells, LC-MS/MS"}, "[2]": {"biological_target": "All Septins", "test": "HaloLink pulldown from unperturbed A375 cells, LC-MS/MS"}}}
{"binder": "mouse SEPT6-HALO (protein, UniProt Q9R1T4 2-434, looked up, not shown: small tags and cut ends; large carriers) AAADIARQVGEDCRTVPLAGHVGFDSLPDQLVNKSVSQGFCFNILCVGETGLGKSTLMDTLFNTKFEGEPATHTQPGVQLQSNTYDLQESNVGLKLTIVSTVGFGDQINKEDSYKPIVEFIDAQFEAYLQEELKIRRVLHSYHDSRIHVCLYFIAPTGHSLKSLDLVTMKKLDSKVNIIPVIAKSDAISKSELAKFKIKITSELVSNGVQIYQFPTDDESVSEINGTMNAHLPFAVVGSTEEVKIGNKMMRARQYPWGTVQVENEAHCDFVKLREMLIRVNMEDLREQTHARHYELYRRCKLEEMGFKDTDPDSKPFSLQETYEAKRNEFLGELQKKEEEMRQMFVQRVKEKEAELKEAEKELHEKFDRLKKLHQEEKKKLEDKKKCLDEEMNAFKQRKAAAELLQSQGSQAGGSQTLKRDKEKKNNPWLCIE", "values": [{"measurement": "% of total protein abundance", "setting": "[1]", "result": 8.06, "unit": "%"}, {"measurement": "fold change between lysate and pulldown (% of total protein abundance)", "setting": "[1]", "result": 35.9, "unit": "fold"}, {"measurement": "% of total protein abundance", "setting": "[2]", "result": 7.04, "unit": "%"}, {"measurement": "fold change between lysate and pulldown (% of total protein abundance)", "setting": "[2]", "result": 56, "unit": "fold"}]}
